B1: Proteasome inhibitor PI31 subunit (Drosophila melanogaster (Fruit fly)), Q9V637 (parent)
chain: MESGSTAKTGDFFYGWDLLYKTVKADVSKKSDLLIALVHFLLTKHYNFRCVGVGDDKTLPEEEGSELLPDSWNDDDTKYSLRYVHDKMLYLLLGHITEGSLLINLLDINTKKVSNICVEPETLVPEVKGGITTIMPSASEIVERYRRELLDPVFTGNSREVTTQTTNSPRPIGSDPDPLRIGEPRRGGSFIPSAFEPRPFGFPDVGRGDLDPLGRGGHGNLFSFPSRPNMGPGPVPRFDPFNPLNPNRPGQGGINPDHMRPPDWNPDYYM
partner: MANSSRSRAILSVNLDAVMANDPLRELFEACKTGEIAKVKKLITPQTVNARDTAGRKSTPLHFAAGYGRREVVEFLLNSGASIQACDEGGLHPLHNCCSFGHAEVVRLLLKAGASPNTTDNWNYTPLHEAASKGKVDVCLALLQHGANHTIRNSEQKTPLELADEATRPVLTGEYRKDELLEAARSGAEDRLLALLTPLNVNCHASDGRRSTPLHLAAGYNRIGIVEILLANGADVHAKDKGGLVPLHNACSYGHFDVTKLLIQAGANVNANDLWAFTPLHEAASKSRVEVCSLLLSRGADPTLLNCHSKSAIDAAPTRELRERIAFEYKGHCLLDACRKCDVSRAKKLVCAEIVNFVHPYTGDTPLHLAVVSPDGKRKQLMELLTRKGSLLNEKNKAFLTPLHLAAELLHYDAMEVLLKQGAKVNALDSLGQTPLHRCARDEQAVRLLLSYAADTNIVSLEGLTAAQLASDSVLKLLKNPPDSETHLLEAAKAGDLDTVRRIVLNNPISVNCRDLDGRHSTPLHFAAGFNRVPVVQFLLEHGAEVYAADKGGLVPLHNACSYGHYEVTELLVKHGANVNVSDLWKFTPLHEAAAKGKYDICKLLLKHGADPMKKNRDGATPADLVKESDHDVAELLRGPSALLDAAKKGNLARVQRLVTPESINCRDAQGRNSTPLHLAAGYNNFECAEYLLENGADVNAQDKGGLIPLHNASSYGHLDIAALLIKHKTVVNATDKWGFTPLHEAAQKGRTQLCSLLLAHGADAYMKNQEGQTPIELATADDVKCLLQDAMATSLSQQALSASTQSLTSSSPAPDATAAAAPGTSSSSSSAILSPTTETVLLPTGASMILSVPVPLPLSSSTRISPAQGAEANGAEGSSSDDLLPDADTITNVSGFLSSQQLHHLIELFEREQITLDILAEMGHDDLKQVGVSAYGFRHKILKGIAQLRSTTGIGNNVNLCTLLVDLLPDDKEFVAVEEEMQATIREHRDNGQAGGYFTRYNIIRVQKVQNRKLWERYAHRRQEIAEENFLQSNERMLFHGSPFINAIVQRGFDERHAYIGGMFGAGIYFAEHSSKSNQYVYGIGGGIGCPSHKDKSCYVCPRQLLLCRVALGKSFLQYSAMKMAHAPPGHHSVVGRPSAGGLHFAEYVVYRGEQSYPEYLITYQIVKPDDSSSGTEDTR
B2: 26S proteasome non-ATPase regulatory subunit 9 (Drosophila melanogaster (Fruit fly)), Q9VFS8 (parent)
chain: MAAGTTTKERLERLINAKKQLEAQINRNGQILAANDNVGMSGPLVDAEGFPRNDIDVYQVRLARQTIICLQNDHKELMNQIQTLLNQYHSEIATTDPELVNRASALDLDSDRSPGGANITDLAPARAIVVVNLVSPDSPAERAGLCAGDAILRFGSINSGNFKGDLAQIGELVRNMQSQNVQLKVKRGEQQLDLILVPKTWSGRGLLGCNIVLPPEAMDH
partner: B1 chain
B3: Proteasome inhibitor PI31 subunit (Drosophila melanogaster (Fruit fly)), Q9V637 (parent)
chain: B1 chain
partner: B2 chain
B4: Proteasome inhibitor PI31 subunit (Drosophila melanogaster (Fruit fly)), Q9V637 (parent)
chain: B1 chain
partner: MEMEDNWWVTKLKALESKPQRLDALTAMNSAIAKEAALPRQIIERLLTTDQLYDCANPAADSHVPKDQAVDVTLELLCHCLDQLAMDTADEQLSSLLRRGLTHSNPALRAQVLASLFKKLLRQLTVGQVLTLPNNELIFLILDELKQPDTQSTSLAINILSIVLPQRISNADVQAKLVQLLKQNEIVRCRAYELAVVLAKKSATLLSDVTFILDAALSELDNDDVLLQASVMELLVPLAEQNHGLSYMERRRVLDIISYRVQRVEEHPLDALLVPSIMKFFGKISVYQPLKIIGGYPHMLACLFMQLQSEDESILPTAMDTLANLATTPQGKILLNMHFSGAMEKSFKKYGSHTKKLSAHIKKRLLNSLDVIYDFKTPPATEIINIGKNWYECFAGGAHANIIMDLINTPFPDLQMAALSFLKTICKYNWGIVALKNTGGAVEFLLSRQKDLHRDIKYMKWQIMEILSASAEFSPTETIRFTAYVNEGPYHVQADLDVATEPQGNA
B5: 26S proteasome non-ATPase regulatory subunit 5 (Drosophila melanogaster (Fruit fly)), Q9VYG1 (parent)
chain: B4 partner
partner: B1 chain

Variants of: B1
Settings: with tnks_drome Tnks

Question: For R49A;G54A, which “effect of a mutation on the interaction” value is on record?
Answer: disrupting interaction strength

Question: L210A was tested. Which “effect of a mutation on the interaction” value did it give?
Answer: disrupting interaction strength

Question: F241A was tested. Which “effect of a mutation on the interaction” value did it give?
Answer: disrupting interaction strength

Variants of: B2
Settings: with psmf1_drome PI31, Q9V637

Question: E9A was tested. Which “effect of a mutation on the interaction” value did it give?
Answer: disrupting interaction strength

Question: How did the “effect of a mutation on the interaction” value turn out when R187A was run?
Answer: disrupting interaction strength

Variants of: B3
Settings: with psmd9_drome psmd9, Q9VFS8

Question: Which “effect of a mutation on the interaction” value does the source give for L210A here?
Answer: disrupting interaction strength

Question: Which “effect of a mutation on the interaction” value does the source give for F241A here?
Answer: disrupting interaction strength

Variants of: B4
Settings: with psmd5_drome psmd5, Q9VYG1

Question: Which “effect of a mutation on the interaction” value does the source give for L210A here?
Answer: disrupting interaction strength

Question: How did the “effect of a mutation on the interaction” value turn out when F241A was run?
Answer: disrupting interaction strength

Variants of: B5
Settings: with psmf1_drome PI31, Q9V637

Question: With R263A as the variant, how does the “effect of a mutation on the interaction” value read?
Answer: disrupting interaction strength

Question: How did the “effect of a mutation on the interaction” value turn out when E44A was run?
Answer: disrupting interaction strength

Source: IntAct's records for PubMed 23622245
